From patent US8455448B2, “Myostatin isoform” (Myostin Therapeutics Pty Ltd, priority 2004, dated 2013)

Tests used:
[1] = test system: myostatin mRNA expression; experiment: Myostatin mRNA expression in C2C12 murine myoblasts (real-time PCR); format: cell-based; details: 10 μg/ml, FIG. 14
Experimental: C2C12 myoblasts were seeded in 10 cm diameter tissue culture plates (Nunc, Roskilde, Denmark) at a cell density of 3000 cells per cm^2 in 10 ml of Dulbecco's modified Eagle's medium (DMEM, Invitrogen, California) supplemented with foetal bovine serum (FBS, 10% v/v, Invitrogen), penicillin (1×10^5 IU/I, Sigma, St Louis, Mo., USA) and streptomycin (100 mg/l, Sigma) buffered with NaHCO3 containing phenol red (7.22 nmol/l) as a pH indicator, and incubated overnight at 37° C. with 5% CO2. For a set of eight plates (chronic treatment, designated “A”) the medium was replaced with the test medium: DMEM with 2.5% FBS supplemented with 0 or 10 μg/ml oMSV47 (n=4). The plates “A” were then incubated at 37° C. with 5% CO2 for 48 hours. […] RNA was re-suspended in diethyl pyrocarbonate-treated water and the total RNA concentration determined by measuring absorbance at 260 nm (Nanodrop Spectrophotometer, Delaware, USA). […] The following experimental run protocol was used: denaturation (95° C. for 5 min), amplification (95° C. for 5 sec, 62° C. for 10 sec, 72° C. for 20 sec, with a single fluorescence measurement, 50 cycles), melt curve (60-95° C. with a heating rate of 0.1° C. per sec with continuous fluorescence measurement) on a LightCycler 2.0 PCR machine (Roche Diagnostics). Arbitrary concentrations were calculated by the Lightcycler software using a standard curve (Roche Diagnostics).

[2] = test system: developmental myosin heavy chain (dMHC); experiment: Developmental myosin heavy chain (dMHC) protein in C2C12 myotubes (Western blot); format: cell-based, murine; details: FIG. 5
Experimental: To investigate whether roMSV65 regulates myoblast differentiation or myotube hypertrophy, C2C12 myoblast cultures were employed. Levels of well-established early and late molecular markers of myogenic differentiation like myogenin and dMHC were measured in the presence and absence of roMSV65 protein.
C2C12 myoblasts were seeded in 10 cm diameter tissue culture plates (Nunc, Roskilde, Denmark) at a cell density of 25,000 cells per cm^2 in 10 ml of Dulbecco's modified Eagle's medium (DMEM, Invitrogen, California) supplemented with foetal bovine serum (FBS, 10% v/v, Invitrogen), penicillin (1×10^5 IU/l, Sigma, St Louis, Mo., USA) and streptomycin (100 mg/I, Sigma) buffered with NaHCO3 containing phenol red (7.22 nmol/l) as a pH indicator, and incubated overnight at 37° C. with 5% CO2.
To study myoblast differentiation, the medium was replaced with the test medium: DMEM with 2% Horse Serum supplemented with 0, 0.1, 1 or 10 μg/ml roMSV65 in three replicates for each concentration (n=3). Plates were incubated at 37° C. with 5% CO2 for 72 hours.
Cells were removed from the plate by trypsin treatment, washed with phosphate buffered saline (PBS, Oxoid, UK) and resuspended in 200 μl of lysis buffer (10 mM Hepes pH 7.9, 1.5 mM MgCl2, 10 mM KCl, 0.5% NP40, one Complete protease inhibitor tablet [Roche Diagnostics, USA] per 50 ml buffer). The protein concentration was estimated using the bicinchoninic acid (BCA, Sigma, Missouri) protein assay. 20 μg of total protein was separated by SDS-PAGE (8% for MHC or 12% for myogenin) and transferred to nitrocellulose membrane by electroblotting. The blots were stained with Ponceau S stain to check equal loading. […] Band intensities were measured with a GS800 densitometer (Bio-Rad, CA).

| Molecule | expression of myostatin (real-time PCR) ([1]; acutely, 6 h from 48 to 54 h) | expression of myostatin (real-time PCR) ([1]; chronically, from seeding to 48 h) | increase in dMHC abundance compared to untreated controls ([2]; 0.1 μg/ml roMSV65, 72 h) [fold] | increase in dMHC abundance compared to untreated controls ([2]; 1 μg/ml roMSV65, 72 h) [fold] | increase in dMHC abundance compared to untreated controls ([2]; 10 μg/ml roMSV65, 72 h) [fold] |
| --- | --- | --- | --- | --- | --- |
| roMSV47: 47 amino acid C-terminal mature ovine MSV fragment (SEQ ID NO: 50), recombinant from E. coli (IIFLEVYIQFCSILGEAVFKRQSKSIHFCQNFKIIACLCNTAAFRMK; Ovis aries) | suppresses the expression of myostatin | suppresses the expression of myostatin | – | – | – |
| roMSV65: 65 amino acid C-terminal peptide of ovine MSV (SEQ ID NO: 49) expressed as recombinant protein in E. coli (protein, Ovis aries) VHFYTPPYGQWIFHKERKIIFLEVYIQFCSILGEAVFKRQSKSIHFCQNFKIIACLCNTAAFRMK | – | – | 18 | 20 | 2 |
